Numbering of substitutions follows the chain as printed. In names and notes the source's numbering stands.
Assays:
[1] = target: human CD47 on the surface of cancer cells (Raji, Jurkat, DLD-1) (human) (UniProt Q08722); experiment: flow cytometry on Raji cells, competition with 100 nM Alexa Fluor 647 WT SIRPα tetramer
[2] = target: biotinylated CD47 IgSF domain (human CD47 residues 19-135 / residues 1-117, C15G) (human) (UniProt Q08722); experiment: SPR (Biacore T100, 25 C), biotinylated CD47 captured on SA chip, SIRPα variant in solution, 1:1 Langmuir model
[3] = target: human CD47 on the surface of cancer cells (Raji, Jurkat, DLD-1) (human) (UniProt Q08722); experiment: flow cytometry on Jurkat cells, competition with Alexa Fluor 647 wild-type SIRPα tetramer (50 nM per paragraph 133)
[4] = target: T1, mouse CD47 displayed on the surface of yeast (mouse, UniProt Q61735 19-133, limits assumed); experiment: flow cytometry on yeast displaying mouse CD47
T1 sequence (looked up): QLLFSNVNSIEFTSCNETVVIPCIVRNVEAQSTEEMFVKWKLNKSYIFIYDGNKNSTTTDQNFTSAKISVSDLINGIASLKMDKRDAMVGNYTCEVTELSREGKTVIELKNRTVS

[5] = target: T2, human CD47 on the surface of cancer cells (Raji, Jurkat, DLD-1) (human, UniProt Q08722 19-323); experiment: flow cytometry on Raji cells, competition with 100 nM Alexa Fluor 647 WT SIRPα tetramer
T2 construct: whole, on cells; also called cell-surface CD47; CD47 on cancer cells

[6] = target: T3, biotinylated CD47 IgSF domain (human CD47 residues 19-135 / residues 1-117, C15G) (human, UniProt Q08722 19-135, biotinylated with BirA ligase at the C-terminal biotin acceptor peptide tag); experiment: SPR (Biacore T100, 25 C), biotinylated CD47 captured on SA chip, SIRPα variant in solution, 1:1 Langmuir model
T3 construct: range 19-135; Captured on a Biacore SA chip for SPR; C15G is counted on the mature domain (1-117), not on the precursor; also called immobilized CD47
Protocol: SPR experiments were conducted on a Biacore T100 instrument at 25° C. Experiments used a Biacore SA sensor chip (GE Healthcare) to capture biotinylated CD47 at a surface density of approximately 150 RU. An unrelated biotinylated protein was immobilized as a reference surface for the SA sensor chip with matching RU to the experimental surface. Serial dilutions of unbiotinylated SIRPα variants in the running buffer [1×HBS-P (GE Healthcare)] were flowed over the chip at a rate of 50 μL/min. CD47 was regenerated using three 30 second injections of 2M MgCl₂. Data was analyzed using the Biacore T100 evaluation software version 2.0 with a 1:1 Langmuir binding model.
Experiments were conducted with a Biacore T100 at 25° C. Protein concentrations were quantified by 280 nm absorbance with a Nanodrop2000 spectrometer (Thermo Scientific). A Biacore SA sensor chip (GE Healthcare) was used to capture biotinylated CD47 (Rₘₐₓ ˜150 RU). An unrelated biotinylated protein was immobilized with an RU value matching that of the […] to control for nonspecific binding. Measurements were made with serial dilutions of the SIRPα variants in HBS-P+ buffer (GE Healthcare). The CD47 surface was regenerated by three 60 second injections of 2 M MgCl₂. All data were analyzed with the Biacore T100 evaluation software version 2.0 with a 1:1 Langmuir binding model.

[7] = target: T2, human CD47 on the surface of cancer …; experiment: flow cytometry on Jurkat cells, competition with Alexa Fluor 647 wild-type SIRPα tetramer (50 nM per paragraph 133)
Protocol: (§1) GFP+ Jurkat cells were washed in PBS then incubated with titrating concentrations of biotinylated SIRPα variants for 30 minutes on ice. Wild-type SIRPα tetramer was pre-formed by incubating a 4:1 molar ratio of biotinylated wild-type SIRPα with streptavidin for 15 minutes on ice. […] Cells were washed twice then analyzed for SIRPα variant binding by flow cytometry using an Accuri C6 flow cytometer. To assess blocking of wild-type SIRPα to cD47, 50 nM wild-type SIRPα tetramer was incubated with titrating concentrations of CD47 blocking agents for 30 minutes on ice. Anti-CD47 clone B6H12 (eBioscience) was used as a positive control for blocking. Data were analyzed using GraphPad Prism 5. Maximal SIRPα variant binding represents the percentage of the maximal mean fluorescence intensity measured for each variant.

[8] = target: T2, human CD47 on the surface of cancer …; experiment: flow cytometry on DLD-1 cells, detection with goat anti-human IgG
Protocol: Varying concentrations of biotinylated SIRPα monomers, SIRPα-hlgG4 fusion proteins, or anti-CD47 antibodies were incubated with cancer cells as indicated. […] Binding of SIRPα-hlgG4 fusion proteins or anti-CD47 antibodies was detected with goat anti-human IgG antibody (Invitrogen) and was analyzed on an LSRFortessa with high-throughput sampler (BD Biosciences). Data represent the mean fluorescence intensity normalized to maximal binding for each class of reagents, and points were fit to sigmoidal dose-response curves using Prism 5 (Graphpad).

[9] = target: T4, mouse CD47 on mouse cells (CT26 colon cancer cells; mouse blood cells) (mouse, UniProt Q61735 19-303); experiment: flow cytometry on mouse CT26 colon cancer cells
T4 construct: whole, on cells
T4 sequence (looked up): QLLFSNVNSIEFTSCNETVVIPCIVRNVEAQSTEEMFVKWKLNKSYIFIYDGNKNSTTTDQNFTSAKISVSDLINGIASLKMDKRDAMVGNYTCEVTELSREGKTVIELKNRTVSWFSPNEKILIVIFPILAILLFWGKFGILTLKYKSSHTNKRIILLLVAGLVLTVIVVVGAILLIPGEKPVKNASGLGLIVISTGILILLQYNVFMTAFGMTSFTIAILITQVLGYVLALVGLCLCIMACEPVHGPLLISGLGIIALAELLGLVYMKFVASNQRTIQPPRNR

[10] = target: T2, human CD47 on the surface of cancer …; experiment: flow cytometry on Jurkat cells, biotinylated SIRPα variant detected with Alexa Fluor 647 streptavidin
Protocol: as §1

Fab fragments of anti-CD47 antibody clone B6H12
IC50 (read off the curve) [1]: 100 nM

WT allele 2 (from UniProt P78324) (receptor)
Kd [2]: 452 nM

Anti-CD47 (B6H12) (antibody)
IC50 (read off the curve) [3]: 80 nM

B1: high-affinity SIRPα variant CV1 monomer (consensus variant 1, d1 domain) (designed binder)
chain: EEELQIIQPDKSVLVAAGETATLRCTITSLFPVGPIQWFRGAGPGRVLIYNQRQGPFPRVTTVSDTTKRNNMDFSIRIGNITPADAGTYYCIKFRKGSPDDVEFKSGAGTELSVRAKPSHHHHHHHH
notes: Nine consensus substitutions grafted onto wild-type SIRPα allele 2
EC50 (read off the curve) [4]: ~20 nM | IC50 (read off the curve) [5]: ~0.8 nM | Kd [6]: 0.0111 nM

B2: FA4 (designed binder)
SIRPα d1 domain variant: EEELQIIQPDKSVSVAAGESAILHCTITSLTPVGPIQWFRGAGPARVLIYNQRQGPFPRVTTVSEGTRRENMDFSISISNITPADAGTYYCIKFRKGSPDTEVKSGAGTELSVRAKPS
notes: also called FA4 mutant d1 domain; FA4 monomer (unbiotinylated, SPR analyte)
Kd [6]: 0.034 nM

B3: 2A2 (designed binder)
SIRPα d1 domain variant: B2 SIRPα d1 domain variant with L4V, A21I, I27V, T31F, Q54E, P56R, F94L, V103F
notes: also called 2A2 mutant d1 domain
Kd [6]: 0.402 nM

B4: 2D3 (designed binder)
SIRPα d1 domain variant: B2 SIRPα d1 domain variant with L4V, A21V, V47L, Q54E, G66T, I92V, F94L, V103F
notes: also called 2D3 mutant d1 domain
Kd [6]: 0.847 nM

B5: 2B5 (designed binder)
SIRPα d1 domain variant: B2 SIRPα d1 domain variant with L4I, I6V, A21V, L23I, I27V, T31F, P56R, R68K, I92V, F94V
notes: also called 2B5 mutant d1 domain
Kd [6]: 0.423 nM

B6: 2F5 (designed binder)
SIRPα d1 domain variant: B2 SIRPα d1 domain variant with L4V, I6L, I27V, T31F, Q54E, R68K
notes: also called 2F5 mutant d1 domain
Kd [6]: 0.276 nM

B7: 1D4 (designed binder)
SIRPα d1 domain variant: B2 SIRPα d1 domain variant with I6V, T31I, V47E, Q54E, P56H, G66T, I92V
notes: First generation variant, unbiotinylated monomer in SPR; also called 1D4 mutant d1 domain
Kd [6]: 11.6 nM

B8: FB3 (designed binder)
SIRPα d1 domain variant: B2 SIRPα d1 domain variant with T31F, V47L, G66T, R68K, I92V, V103F
notes: also called FB3 mutant d1 domain
Kd [6]: 0.0699 nM

B9: 2A10 (designed binder)
SIRPα d1 domain variant: B2 SIRPα d1 domain variant with T31S, R68K, F94L, V103F
notes: also called 2A10 mutant d1 domain
Kd [6]: 0.5 nM

B10: first generation SIRPα mutant 1A5 monomer (designed binder)
chain: EEEVQVIQPDKSVSVAAGESAILHCTLTSLIPVGPIQWFRGAGPARVLIYNQRQGHFPRVTTVSEGTRRENMDFSISISNITPADAGTYYCIKFRKGSPDTEFKSGAGTELSVRAKPSHHHHHHHH
Kd [6]: 3.6 nM | IC50 (read off the curve) [7]: ~80 nM

B11: high-affinity SIRPα variant FD6 monomer (d1 domain) (designed binder)
chain: B10 chain with V6I, L27I, I31F, H56P, V63I, G66T
notes: Second generation variant of human SIRPα allele 1 d1
IC50 (read off the curve) [5]: ~2 nM | Kd [6]: 0.0413 nM | IC50 (read off the curve) [7]: ~3 nM

B12: FD6-hIgG4 (FD6 d1 domain fused to hinge, CH2 and CH3 of human IgG4) (Fc fusion)
chain: EEEVQIIQPDKSVSVAAGESAILHCTITSLFPVGPIQWFRGAGPARVLIYNQRQGPFPRVTTISETTRRENMDFSISISNITPADAGTYYCIKFRKGSPDTEFKSGAGTELSVRAKPSAAAPPCPPCPAPEFLGGPSVFLFPPKPKDTLMISRTPEVTCVVVDVSQEDPEVQFNWYVDGVEVHNAKTKPREEQFNSTYRVVSVLTVLHQDWLNGKEYKCKVSNKGLPSSIEKTISKAKGQPREPQVYTLPPSQEEMTKNQVSLTCLVKGFYPSDIAVEWESNGQPENNYKTTPPVLDSDGSFFLYSRLTVDKSRWQEGNVFSCSVMHEALHNHYTQKSLSLSPGK
notes: also called FD6-hlgG4; FD-hlgG4
EC50 (read off the curve) [8]: ~5 nM | IC50 (read off the curve) [7]: ~2 nM

B13: biotinylated FD6 monomer (designed binder)
chain: EEEVQIIQPDKSVSVAAGESAILHCTITSLFPVGPIQWFRGAGPARVLIYNQRQGPFPRVTTISETTRRENMDFSISISNITPADAGTYYCIKFRKGSPDTEFKSGAGTELSVRAKPSGLNDIFEAQKIEWHEHHHHHHHH
modifications: biotinylated at the C-terminal biotin acceptor peptide tag
EC50 (read off the curve) [9]: ~300 nM

B14: biotinylated high-affinity SIRPα variant FA4 monomer (designed binder)
chain: B13 chain with V4L, F31T, I63V, T66G, F103V
modifications: biotinylated at the C-terminal biotin acceptor peptide tag
binding result [10]: binds

B15: CV1-hIgG4 (CV1 d1 domain fused to hinge, CH2 and CH3 of human IgG4 S228P) (Fc fusion)
chain: EEELQIIQPDKSVLVAAGETATLRCTITSLFPVGPIQWFRGAGPGRVLIYNQRQGPFPRVTTVSDTTKRNNMDFSIRIGNITPADAGTYYCIKFRKGSPDDVEFKSGAGTELSVRAKPSAAAPPCPPCPAPEFLGGPSVFLFPPKPKDTLMISRTPEVTCVVVDVSQEDPEVQFNWYVDGVEVHNAKTKPREEQFNSTYRVVSVLTVLHQDWLNGKEYKCKVSNKGLPSSIEKTISKAKGQPREPQVYTLPPSQEEMTKNQVSLTCLVKGFYPSDIAVEWESNGQPENNYKTTPPVLDSDGSFFLYSRLTVDKSRWQEGNVFSCSVMHEALHNHYTQKSLSLSPGK
notes: also called CV1-hlgG4
EC50 (read off the curve) [8]: ~4 nM

Reference: US20180195054A1 (Stanford University, published 2018)
